From US20100196266A1

Experiments:
[1] = target: canine CD22 on dog lymphocytes and lymphoma cells (dog); experiment: flow cytometry, canine lymphoma aspirate 150836; none 3.9
[2] = target: canine CD22 on dog lymphocytes and lymphoma cells (dog); experiment: flow cytometry, canine lymphoma aspirate 150836; none 3.4
[3] = target: canine CD22 on dog lymphocytes and lymphoma cells (dog); experiment: flow cytometry, dog lymphoma aspirate; none 3.37
[4] = target: canine CD22 on dog lymphocytes and lymphoma cells (dog); experiment: flow cytometry, dog lymphoma aspirate; none 3.85
[5] = target: human leukocyte antigen-DR (HLA-DR) on human lymphoma and leukemia cell lines and human lymphocytes (human); experiment: indirect flow cytometry, Namalwa cells, FITC-GAH; none 2.52; irrelevant antibody
[6] = target: human leukocyte antigen-DR (HLA-DR) on human lymphoma and leukemia cell lines and human lymphocytes (human); experiment: indirect flow cytometry, Namalwa cells, FITC-GAM; none 2.91; irrelevant antibody
[7] = target: canine CD22 on dog lymphocytes and lymphoma cells (dog); experiment: flow cytometry, canine lymphoma aspirate 150836; none 3.2
[8] = target: canine CD22 on dog lymphocytes and lymphoma cells (dog); experiment: flow cytometry, canine lymphoma aspirate 150836; none 4.5
[9] = target: canine CD22 on dog lymphocytes and lymphoma cells (dog); experiment: flow cytometry, dog lymphoma aspirate; none 3.24
[10] = target: canine CD22 on dog lymphocytes and lymphoma cells (dog); experiment: flow cytometry, dog lymphoma aspirate; none 4.48
[11] = target: canine CD20 on dog lymphocytes and lymphoma cells (dog) (UniProt Q3C2E2); experiment: flow cytometry, canine lymphoma aspirate 150836; none 3.9
[12] = target: human CD20 on cells (human) (UniProt P11836); experiment: flow cytometry, Kasumi-3 (AML) cells; no mAb 9.6
[13] = target: human CD20 on cells (human) (UniProt P11836); experiment: flow cytometry, HC-1 (hairy cell leukemia) cells; no mAb 4.8
[14] = target: canine CD20 on dog lymphocytes and lymphoma cells (dog) (UniProt Q3C2E2); experiment: flow cytometry, canine lymphoma aspirate 150836; none 3.4
[15] = target: human CD20 on cells (human) (UniProt P11836); experiment: flow cytometry, 697 (ALL) cells; no mAb 4.9
[16] = target: human CD20 on cells (human) (UniProt P11836); experiment: flow cytometry, Granta-519 (MCL) cells; no mAb 15.3
[17] = target: human CD20 on cells (human) (UniProt P11836); experiment: flow cytometry, REH (ALL) cells; no mAb 3.9
[18] = target: canine CD20 on dog lymphocytes and lymphoma cells (dog) (UniProt Q3C2E2); experiment: flow cytometry, dog lymphoma aspirate; none 3.37
[19] = target: human CD20 on cells (human) (UniProt P11836); experiment: indirect flow cytometry, Namalwa cells, FITC-GAM; none 2.91
[20] = target: canine CD20 on dog lymphocytes and lymphoma cells (dog) (UniProt Q3C2E2); experiment: flow cytometry, dog lymphoma aspirate; none 3.85
[21] = target: human CD20 on cells (human) (UniProt P11836); experiment: flow cytometry, Jeko-1 (MCL) cells; no mAb 14.3
[22] = target: human CD20 on cells (human) (UniProt P11836); experiment: flow cytometry, MN60 (ALL) cells; no mAb 8.1
[23] = target: human CD20 on cells (human) (UniProt P11836); experiment: flow cytometry, Kasumi-1 (AML) cells; no mAb 18.2
[24] = target: human CD20 on cells (human) (UniProt P11836); experiment: flow cytometry, RS4;11 (ALL) cells; no mAb 6.4
[25] = target: human CD20 on cells (human) (UniProt P11836); experiment: flow cytometry, K562 (CML) cells; no mAb 3.2
[26] = target: human CD20 on cells (human) (UniProt P11836); experiment: flow cytometry, WAC (CLL) cells; no mAb 15.8
[27] = target: human CD20 on cells (human) (UniProt P11836); experiment: flow cytometry, GDM-1 (AML) cells; no mAb 16.8
[28] = target: human CD20 on cells (human) (UniProt P11836); experiment: flow cytometry, MEC-1 (CLL) cells; no mAb 4.7
[29] = target: human leukocyte antigen-DR (HLA-DR) on human lymphoma and leukemia cell lines and human lymphocytes (human); experiment: flow cytometry, K562 (CML) cells; no mAb 3.2; isotype control
[30] = target: human leukocyte antigen-DR (HLA-DR) on human lymphoma and leukemia cell lines and human lymphocytes (human); experiment: flow cytometry, 697 (ALL) cells; no mAb 4.9; isotype control
[31] = target: human leukocyte antigen-DR (HLA-DR) on human lymphoma and leukemia cell lines and human lymphocytes (human); experiment: flow cytometry, RS4;11 (ALL) cells; no mAb 6.4; isotype control
[32] = target: antigen recognised by L243 on canine lymphocytes and canine lymphoma cells (HLA-DR of the dog) (dog); experiment: flow cytometry, canine lymphoma aspirate 150836; none 3.4; control antibody
[33] = target: human leukocyte antigen-DR (HLA-DR) on human lymphoma and leukemia cell lines and human lymphocytes (human); experiment: flow cytometry, WAC (CLL) cells; no mAb 15.8; isotype control
[34] = target: human leukocyte antigen-DR (HLA-DR) on human lymphoma and leukemia cell lines and human lymphocytes (human); experiment: flow cytometry, REH (ALL) cells; no mAb 3.9; isotype control
[35] = target: human leukocyte antigen-DR (HLA-DR) on human lymphoma and leukemia cell lines and human lymphocytes (human); experiment: flow cytometry, GDM-1 (AML) cells; no mAb 16.8; isotype control
[36] = target: human leukocyte antigen-DR (HLA-DR) on human lymphoma and leukemia cell lines and human lymphocytes (human); experiment: flow cytometry, HC-1 (hairy cell leukemia) cells; no mAb 4.8; isotype control
[37] = target: human leukocyte antigen-DR (HLA-DR) on human lymphoma and leukemia cell lines and human lymphocytes (human); experiment: flow cytometry, Kasumi-1 (AML) cells; no mAb 18.2; isotype control
[38] = target: antigen recognised by L243 on canine lymphocytes and canine lymphoma cells (HLA-DR of the dog) (dog); experiment: flow cytometry, dog lymphoma aspirate; none 3.37; control antibody
[39] = target: antigen recognised by L243 on canine lymphocytes and canine lymphoma cells (HLA-DR of the dog) (dog); experiment: flow cytometry, canine lymphoma aspirate 150836; none 3.9; control antibody
[40] = target: human leukocyte antigen-DR (HLA-DR) on human lymphoma and leukemia cell lines and human lymphocytes (human); experiment: flow cytometry, Kasumi-3 (AML) cells; no mAb 9.6; isotype control
[41] = target: human leukocyte antigen-DR (HLA-DR) on human lymphoma and leukemia cell lines and human lymphocytes (human); experiment: flow cytometry, Jeko-1 (MCL) cells; no mAb 14.3; isotype control
[42] = target: human leukocyte antigen-DR (HLA-DR) on human lymphoma and leukemia cell lines and human lymphocytes (human); experiment: flow cytometry, Granta-519 (MCL) cells; no mAb 15.3; isotype control
[43] = target: antigen recognised by L243 on canine lymphocytes and canine lymphoma cells (HLA-DR of the dog) (dog); experiment: flow cytometry, dog lymphoma aspirate; none 3.85; control antibody
[44] = target: human leukocyte antigen-DR (HLA-DR) on human lymphoma and leukemia cell lines and human lymphocytes (human); experiment: flow cytometry, MN60 (ALL) cells; no mAb 8.1; isotype control
[45] = target: human leukocyte antigen-DR (HLA-DR) on human lymphoma and leukemia cell lines and human lymphocytes (human); experiment: flow cytometry, MEC-1 (CLL) cells; no mAb 4.7; isotype control
[46] = target: human leukocyte antigen-DR (HLA-DR) on human lymphoma and leukemia cell lines and human lymphocytes (human); experiment: indirect flow cytometry, Namalwa cells, FITC-GAM; none 2.91; control antibody

Chain of human CD20 on cells (human) (P11836 whole entry): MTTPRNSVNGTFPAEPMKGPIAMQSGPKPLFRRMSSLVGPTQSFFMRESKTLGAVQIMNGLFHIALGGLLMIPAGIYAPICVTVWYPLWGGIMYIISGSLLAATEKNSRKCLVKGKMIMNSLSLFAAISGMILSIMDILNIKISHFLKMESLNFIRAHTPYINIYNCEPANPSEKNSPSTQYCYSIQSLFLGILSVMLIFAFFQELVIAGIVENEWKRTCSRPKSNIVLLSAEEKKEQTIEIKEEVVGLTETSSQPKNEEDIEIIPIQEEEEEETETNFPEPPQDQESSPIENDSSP
Chain of canine CD20 on dog lymphocytes and lymphoma cells (dog) (Q3C2E2 whole entry): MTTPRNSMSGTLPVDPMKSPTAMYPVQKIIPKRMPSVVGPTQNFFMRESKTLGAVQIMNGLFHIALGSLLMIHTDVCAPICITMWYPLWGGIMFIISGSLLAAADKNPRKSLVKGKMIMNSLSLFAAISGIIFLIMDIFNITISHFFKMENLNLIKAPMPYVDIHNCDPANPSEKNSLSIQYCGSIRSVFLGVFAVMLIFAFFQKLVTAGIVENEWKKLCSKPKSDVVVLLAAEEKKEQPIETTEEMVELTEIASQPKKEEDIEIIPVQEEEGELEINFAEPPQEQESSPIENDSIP

## murine LL2 (anti-human CD22) (antibody)
[1]
  % Positive: 5.1%
[2]
  mean FL: 3.7
[3]
  mean FL: 3.73
[4]
  % Positive: 5.05%

## hRS7 (humanized anti-EGP-1) (antibody)
[5]
  GEO MEAN Fluorescence: 2.47

## murine RS7 (antibody)
[6]
  GEO MEAN Fluorescence: 3.39

## epratuzumab (hLL2, humanized anti-CD22 mAb) (antibody)
[7]
  mean FL: 3.4
[8]
  % Positive: 4.9%
[9]
  mean FL: 3.37
[10]
  % Positive: 4.85%

## 2B8 (murine anti-CD20 mAb) (antibody)
[11]
  % Positive: 2.6%
[12]
  mean FL: 11
[13]
  mean FL: 42.2
[14]
  mean FL: 3.1
[15]
  mean FL: 6.9
[16]
  mean FL: 677
[17]
  mean FL: 23.5
[18]
  mean FL: 3.11
[19]
  GEO MEAN Fluorescence: 6.16
[20]
  % Positive: 2.61%
[21]
  mean FL: 455
[22]
  mean FL: 162
[23]
  mean FL: 14.5
[24]
  mean FL: 11.5
[25]
  mean FL: 4.3
[26]
  mean FL: 275
[27]
  mean FL: 15.6
[28]
  mean FL: 175

## Ag8 (P3x63 Ag8, murine myeloma derived mAb) (antibody)
[29]
  mean FL: 4.1
[30]
  mean FL: 5.6
[31]
  mean FL: 8.6
[32]
  mean FL: 3
[33]
  mean FL: 14.4
[34]
  mean FL: 3.9
[35]
  mean FL: 20.1
[36]
  mean FL: 3.5
[37]
  mean FL: 17
[38]
  mean FL: 3.04
[39]
  % Positive: 2.8%
[40]
  mean FL: 15.7
[41]
  mean FL: 17.4
[42]
  mean FL: 16.9
[43]
  % Positive: 2.81%
[44]
  mean FL: 10.5
[45]
  mean FL: 6
[46]
  GEO MEAN Fluorescence: 3.64
